The results in this text go back to US20140087995A1 (published 2014).

The labels stand for the following.
B1: N^α1-[(4S)-4-carboxy-4-(19-carboxynonadecanoylamino)butanoyl]-[Glu14,Arg17,Pro21,Pro26]-h-amylin (peptide)
peptide: {C20 diacid-γGlu}-KCNTATCATQRLAEFLRHSSPNFGAPLSSTNVGSNTY-NH2
modifications: disulfide 2-7
SMILES: CC(C)C[C@H](NC(=O)[C@H](CCCNC(=N)N)NC(=O)[C@H](CCC(N)=O)NC(=O)[C@@H](NC(=O)[C@H](C)NC(=O)[C@@H]1CSSC[C@H](NC(=O)[C@H](CCCCN)NC(=O)CC[C@H](NC(=O)CCCCCCCCCCCCCCCCCCC(=O)O)C(=O)O)C(=O)N[C@@H](CC(N)=O)C(=O)N[C@@H]([C@@H](C)O)C(=O)N[C@@H](C)C(=O)N[C@@H]([C@@H](C)O)C(=O)N1)[C@@H](C)O)C(=O)N[C@@H](C)C(=O)N[C@@H](CCC(=O)O)C(=O)N[C@@H](Cc1ccccc1)C(=O)N[C@@H](CC(C)C)C(=O)N[C@@H](CCCNC(=N)N)C(=O)N[C@@H](Cc1c[nH]cn1)C(=O)N[C@@H](CO)C(=O)N[C@@H](CO)C(=O)N1CCC[C@H]1C(=O)N[C@@H](CC(N)=O)C(=O)N[C@@H](Cc1ccccc1)C(=O)NCC(=O)N[C@@H](C)C(=O)N1CCC[C@H]1C(=O)N[C@@H](CC(C)C)C(=O)N[C@@H](CO)C(=O)N[C@@H](CO)C(=O)N[C@H](C(=O)N[C@@H](CC(N)=O)C(=O)N[C@H](C(=O)NCC(=O)N[C@@H](CO)C(=O)N[C@@H](CC(N)=O)C(=O)N[C@H](C(=O)N[C@@H](Cc1ccc(O)cc1)C(N)=O)[C@@H](C)O)C(C)C)[C@@H](C)O
notes: also called compound 7
B2: N^α1-[(4S)-4-carboxy-4-(19-carboxynonadecanoylamino)butanoyl]-[Glu14,Arg17,Pro21,Pro27,Asp35,Pro37]-h-amylin (peptide)
peptide: {C20 diacid-γGlu}-KCNTATCATQRLAEFLRHSSPNFGAIPSSTNVGSDTP-NH2
modifications: disulfide 2-7
SMILES: CC[C@H](C)[C@H](NC(=O)[C@H](C)NC(=O)CNC(=O)[C@H](Cc1ccccc1)NC(=O)[C@H](CC(N)=O)NC(=O)[C@@H]1CCCN1C(=O)[C@H](CO)NC(=O)[C@H](CO)NC(=O)[C@H](Cc1c[nH]cn1)NC(=O)[C@H](CCCNC(=N)N)NC(=O)[C@H](CC(C)C)NC(=O)[C@H](Cc1ccccc1)NC(=O)[C@H](CCC(=O)O)NC(=O)[C@H](C)NC(=O)[C@H](CC(C)C)NC(=O)[C@H](CCCNC(=N)N)NC(=O)[C@H](CCC(N)=O)NC(=O)[C@@H](NC(=O)[C@H](C)NC(=O)[C@@H]1CSSC[C@H](NC(=O)[C@H](CCCCN)NC(=O)CC[C@H](NC(=O)CCCCCCCCCCCCCCCCCCC(=O)O)C(=O)O)C(=O)N[C@@H](CC(N)=O)C(=O)N[C@@H]([C@@H](C)O)C(=O)N[C@@H](C)C(=O)N[C@@H]([C@@H](C)O)C(=O)N1)[C@@H](C)O)C(=O)N1CCC[C@H]1C(=O)N[C@@H](CO)C(=O)N[C@@H](CO)C(=O)N[C@H](C(=O)N[C@@H](CC(N)=O)C(=O)N[C@H](C(=O)NCC(=O)N[C@@H](CO)C(=O)N[C@@H](CC(=O)O)C(=O)N[C@H](C(=O)N1CCC[C@H]1C(N)=O)[C@@H](C)O)C(C)C)[C@@H](C)O
notes: also called 11; compound 11
B3: N^α1-[(4S)-4-carboxy-4-(19-carboxynonadecanoylamino)butanoyl]-[Glu14,Arg17,Pro21,Pro27,Arg35]-h-amylin (peptide)
peptide: {C20 diacid-γGlu}-KCNTATCATQRLAEFLRHSSPNFGAIPSSTNVGSRTY-NH2
modifications: disulfide 2-7
SMILES: CC[C@H](C)[C@H](NC(=O)[C@H](C)NC(=O)CNC(=O)[C@H](Cc1ccccc1)NC(=O)[C@H](CC(N)=O)NC(=O)[C@@H]1CCCN1C(=O)[C@H](CO)NC(=O)[C@H](CO)NC(=O)[C@H](Cc1c[nH]cn1)NC(=O)[C@H](CCCNC(=N)N)NC(=O)[C@H](CC(C)C)NC(=O)[C@H](Cc1ccccc1)NC(=O)[C@H](CCC(=O)O)NC(=O)[C@H](C)NC(=O)[C@H](CC(C)C)NC(=O)[C@H](CCCNC(=N)N)NC(=O)[C@H](CCC(N)=O)NC(=O)[C@@H](NC(=O)[C@H](C)NC(=O)[C@@H]1CSSC[C@H](NC(=O)[C@H](CCCCN)NC(=O)CC[C@H](NC(=O)CCCCCCCCCCCCCCCCCCC(=O)O)C(=O)O)C(=O)N[C@@H](CC(N)=O)C(=O)N[C@@H]([C@@H](C)O)C(=O)N[C@@H](C)C(=O)N[C@@H]([C@@H](C)O)C(=O)N1)[C@@H](C)O)C(=O)N1CCC[C@H]1C(=O)N[C@@H](CO)C(=O)N[C@@H](CO)C(=O)N[C@H](C(=O)N[C@@H](CC(N)=O)C(=O)N[C@H](C(=O)NCC(=O)N[C@@H](CO)C(=O)N[C@@H](CCCNC(=N)N)C(=O)N[C@H](C(=O)N[C@@H](Cc1ccc(O)cc1)C(N)=O)[C@@H](C)O)C(C)C)[C@@H](C)O
notes: also called 16; compound 16

Numbered stars: 1 amine (or outer) side, 2 acyl side, 3 side chain; on linkers, the order of the positions; unused ones are H or OH. Bridge positions count the residues as written; N and C are the ends. * marks the point of attachment. C20 diacid = O=C(O)CCCCCCCCCCCCCCCCCCC(=O)*; γGlu = O=C(O)[C@H](CCC(=O)[*:2])N[*:1]

The assay deals with T1, human amylin receptor (amylin 3(a) receptor: human calcitonin receptor with RAMP-3) (human, UniProt P30988 25-474; O60896 24-148).
T1 construct: whole, on cells; also called hAmylin-R; hAmylinR
T1 sequence (looked up) 1: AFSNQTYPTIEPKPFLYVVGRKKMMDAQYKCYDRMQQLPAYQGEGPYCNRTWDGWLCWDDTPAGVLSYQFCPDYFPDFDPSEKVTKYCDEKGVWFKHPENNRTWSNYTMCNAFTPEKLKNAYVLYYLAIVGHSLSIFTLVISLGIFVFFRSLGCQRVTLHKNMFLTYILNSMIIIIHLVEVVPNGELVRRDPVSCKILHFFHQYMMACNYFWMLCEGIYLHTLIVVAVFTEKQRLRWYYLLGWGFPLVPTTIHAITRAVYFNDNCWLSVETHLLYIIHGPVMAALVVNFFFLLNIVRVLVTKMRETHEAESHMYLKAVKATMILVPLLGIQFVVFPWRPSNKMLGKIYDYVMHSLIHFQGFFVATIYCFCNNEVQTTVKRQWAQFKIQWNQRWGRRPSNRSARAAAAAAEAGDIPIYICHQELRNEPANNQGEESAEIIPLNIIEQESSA
T1 sequence (looked up) 2: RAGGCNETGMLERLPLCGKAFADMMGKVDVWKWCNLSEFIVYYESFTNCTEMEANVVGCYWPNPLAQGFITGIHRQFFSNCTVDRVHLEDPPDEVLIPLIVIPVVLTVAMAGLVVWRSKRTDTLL
Briefly: SPA displacement of 125I-rat amylin, hAmylin 3(a) receptor membranes. The protocol:
The binding assay was performed using scintillation proximity assay (SPA) beads (RPNQ0001) from PerkinElmer and cell membranes from the Amylin 3(a)/CRE-luc cells (as described in Assay (II)) were used. Membranes were prepared in the following way; the cells were rinsed with PBS and incubated with Versene for approximately 5 min before harvesting. The cells were flushed with PBS and the cell-suspension was centrifuged for 5 min at 1000 rpm. Cells were homogenized (ultrathurrax) in a buffer containing 20 mM Na-HEPES and 10 mM EDTA (pH 7.4) and centrifuged at 20.000 rpm for 15 min. The resulting pellet was resuspended, homogenized and centrifuged (20.000 rpm, 15 min) in a buffer containing 20 mM Na-HEPES and 0.1 mM EDTA (pH 7.4, buffer 2). The resulting pellet was resuspended in buffer 2 and protein concentration was measured (BCA protein Assay, Pierce). The homogenate was kept cold during the whole procedure. The membranes were kept at −80° C. until use. The assay was performed in a 384 well Optiplate (PerkinElmer) in a total volume of 40 ul. Membranes were mixed with SPA beads. Final concentration of membranes 35 ng/μL final and SPA beads was 0.05 mg/well. Test-compounds were dissolved in DMSO and further diluted in assay buffer (50 mM Hepes, pH 7.4, 1 mM CaCl2, 5 mM MgCl₂, 0.1% OA and 0.02% Tween20). […] The final mixture was incubated with shaking at 400 rpm for 120 min at 25° C. prior to centrifugation (1500 rpm, 10 min). Samples were analyzed on TopCounter™ (Packard). The IC₅₀ was calculated using (one site binding competition analysis) GraphPad Prism5 as a measure of receptor affinity.
For B1, the IC50 is 0.674 nM. In the case of B2 it was 0.105 nM; in that of B3, 0.894 nM.
